Positions of bridges follow the written chain, without caps; N, C: chain ends. Residues, ends and D or L forms follow the SMILES beside them. *: point of attachment. DOTA = O=C(O)CN1CCN(CC(=O)O)CCN(CC(=O)*)CCN(CC(=O)O)CC1
Key:
in vitro = in vitro ADME; conditions: mouse, serum
Protocol: Radiolabeled AgRP* peptides were incubated in 0.01 M PBS (pH 7.4) at 37°C for 24 h and monitored for degradation by HPLC. Stability was also tested by incubating 0.74 MBq (20 μCi) ^111In-DOTA-AgRP-7C or ^111In-DOTA-AgRP-6E in 400 μL of mouse serum at 37°C for 2 h. Afterward, the mixture was re-suspended in 0.5 mL of DMF containing 5 μL of Triton X-100 and centrifuged at 16,000 g for 2 min. The supernatant, which contained >95% of the starting radioactivity, was filtered using a 10 K NanoSep device (Pall Corporation, East Hills, NY, USA). Greater than 99% of the radioactive material passed through this filter. The samples were analyzed by radio-HPLC, and the percentage of intact peptide was determined by quantifying peaks corresponding to the intact peptide and to the degradation products.
Figure 1 Stability analysis of ^111In-DOTA-AgRP-7C (a) and (b), and ^111In-DOTA-AgRP-6E (c) and (d) in PBS and mouse serum. The two radiopeptides were incubated with PBS for 24 h at […], and mouse serum for 2 h at 37°C.

[1] = system: nude mice bearing subcutaneous U87MG human glioblastoma xenografts; test: in vivo; conditions: female, athymic nu/nu, mouse, iv, 2 h
Protocol: (§1) All animal studies were carried out in compliance with federal and local institutional rules for animal experimentation. Approximately, 10^7 U87MG cells were suspended in PBS and subcutaneously implanted in the left shoulders of female athymic nu/nu mice. Tumors were allowed to grow to a size of 0.5 cm (2-3 weeks) before imaging experiments were performed. For biodistribution studies, U87MG tumor-bearing mice (n = 3 for each group) were injected with ^111In-DOTA-AgRP-7C (0.259–0.37 MBq, […]) or ^111In-DOTA-AgRP-6E (0.296–0.444 MBq, 8–12 μCi) via the tail vein and sacrificed at different time points (0.5, 2, 24, and 48 h) after injection (p.i.). Tumor and normal tissues of interest were removed and weighed, and their radioactivity was measured with a γ-counter. Radioactivity uptake was expressed as the percent injected dose per gram of tissue (%ID/g). To test the in vivo αvβ3 integrin targeting specificity of the probe, U87MG tumor-bearing mice (n = 3 for each group) were injected via the tail vein with a mixture of ^111In-DOTA-AgRP-7C (0.259–0.37 MBq, 7–10 μCi) and 330 μg of c(RGDyK). The mice were sacrificed at 2 h p.i. and the biodistribution of the radiolabeled peptide was measured as above.
(§2) Quantitative data were expressed as mean ± SD. Means were compared using the Student t-test. A 95% confidence level was chosen to determine the significance between groups, with P values of less than 0.05 indicating significant differences.

in vivo = conditions: female, athymic nu/nu, mouse, iv, total radioactivity
Protocol: as §1, §2

CC(C)C[C@@H]1NC(=O)[C@@H]2CSSC[C@@H]3NC(=O)[C@H]([C@@H](C)O)NC(=O)[C@H](C)NC(=O)[C@H](C)NC(=O)[C@@H]4CCCN4C(=O)[C@H](CC(=O)O)NC(=O)[C@H](CSSC[C@H](NC(=O)CNC(=O)CN4CCN(CC(=O)O)CCN(CC(=O)O)CCN(CC(=O)O)CC4)C(=O)N[C@@H](C(C)C)C(=O)N[C@@H](CCCNC(=N)N)C(=O)N[C@@H](CC(C)C)C(=O)N[C@@H](Cc4c[nH]cn4)C(=O)N[C@@H](CCC(=O)O)C(=O)N[C@@H](CO)C(=O)N2)NC(=O)[C@H](CSSC[C@@H](C(=O)N[C@@H](CCCNC(=N)N)C(=O)O)NC(=O)[C@H](Cc2ccc(O)cc2)NC(=O)[C@@H]2CSSC[C@H](NC(=O)[C@H](Cc4ccc(O)cc4)NC3=O)C(=O)N[C@@H](Cc3ccc(O)cc3)C(=O)NCC(=O)N[C@@H](CCCNC(=N)N)C(=O)NCC(=O)N[C@@H](CC(=O)O)C(=O)N[C@@H](CC(N)=O)C(=O)N[C@@H](CC(=O)O)C(=O)N[C@@H](CC(C)C)C(=O)N[C@@H](CCCNC(=N)N)C(=O)N2)NC(=O)[C@@H]2CCCN2C(=O)[C@H](C(C)C)NC(=O)[C@H](CCC(N)=O)NC(=O)[C@H](CCC(N)=O)NC(=O)CNC1=O [111In-DOTA-AgRP-7C, metal not drawn] ({DOTA}-GCVRLHESCLGQQVPCCDPAATCYCYGRGDNDLRCYCR-OH; disulfide 2-17, 9-23, 16-37, 25-35)
remaining at 2 h, 1.85 MBq/mL (in vitro): > 95%
Intestine uptake [1]: 0.60 ± 0.13 %ID/g
Liver uptake [1]: 0.43 ± 0.16 %ID/g
Lung uptake [1]: 0.86 ± 0.20 %ID/g
Spleen uptake [1]: 0.88 ± 0.21 %ID/g
Tumor uptake [1]: 2.35 ± 0.36 %ID/g
Tumor-to-muscle ratio [1]: 39.83 ± 9.16
tissue uptake at 0.5 h (in vivo; Blood uptake): 0.68 ± 0.26 %ID/g
tissue uptake at 2 h (in vivo; Blood uptake): 0.1 ± 0.02 %ID/g
tissue uptake at 24 h (in vivo; Blood uptake): 0.01 %ID/g
tissue uptake at 48 h (in vivo; Blood uptake): 0.01 %ID/g
tissue uptake at 0.5 h (in vivo; Bone uptake): 1.41 ± 0.36 %ID/g
tissue uptake at 2 h (in vivo; Bone uptake): 0.63 ± 0.05 %ID/g
tissue uptake at 24 h (in vivo; Bone uptake): 0.39 ± 0.07 %ID/g
tissue uptake at 48 h (in vivo; Bone uptake): 0.24 ± 0.05 %ID/g
tissue uptake at 0.5 h (in vivo; Brain uptake): 0.04 ± 0.02 %ID/g
tissue uptake at 2 h (in vivo; Brain uptake): 0.02 ± 0.01 %ID/g
tissue uptake at 24 h (in vivo; Brain uptake): 0.01 %ID/g
tissue uptake at 48 h (in vivo; Brain uptake): 0.01 ± 0.01 %ID/g
tissue uptake at 0.5 h (in vivo; Heart uptake): 0.45 ± 0.16 %ID/g
tissue uptake at 2 h (in vivo; Heart uptake): 0.12 ± 0.02 %ID/g
tissue uptake at 24 h (in vivo; Heart uptake): 0.04 ± 0.01 %ID/g
tissue uptake at 48 h (in vivo; Heart uptake): 0.03 %ID/g
tissue uptake at 0.5 h (in vivo; Intestine uptake): 2.02 ± 0.71 %ID/g
tissue uptake at 24 h (in vivo; Intestine uptake): 0.29 ± 0.02 %ID/g
tissue uptake at 48 h (in vivo; Intestine uptake): 0.22 ± 0.03 %ID/g
tissue uptake at 0.5 h (in vivo; Kidneys uptake): 33.9 ± 8.35 %ID/g
tissue uptake at 2 h (in vivo; Kidneys uptake): 30.6 ± 4.62 %ID/g
tissue uptake at 24 h (in vivo; Kidneys uptake): 19.1 ± 2.17 %ID/g
tissue uptake at 48 h (in vivo; Kidneys uptake): 8.47 ± 0.04 %ID/g
tissue uptake at 0.5 h (in vivo; Liver uptake): 0.8 ± 0.19 %ID/g
tissue uptake at 24 h (in vivo; Liver uptake): 0.24 ± 0.03 %ID/g
tissue uptake at 48 h (in vivo; Liver uptake): 0.19 ± 0.03 %ID/g
tissue uptake at 0.5 h (in vivo; Lung uptake): 2.11 ± 0.65 %ID/g
tissue uptake at 24 h (in vivo; Lung uptake): 0.26 ± 0.09 %ID/g
tissue uptake at 48 h (in vivo; Lung uptake): 0.12 ± 0.02 %ID/g
tissue uptake at 0.5 h (in vivo; Muscle uptake): 0.3 ± 0.13 %ID/g
tissue uptake at 2 h (in vivo; Muscle uptake): 0.06 ± 0.01 %ID/g
tissue uptake at 24 h (in vivo; Muscle uptake): 0.04 ± 0.01 %ID/g
tissue uptake at 48 h (in vivo; Muscle uptake): 0.02 ± 0.01 %ID/g
tissue uptake at 0.5 h (in vivo; Pancreas uptake): 0.42 ± 0.17 %ID/g
tissue uptake at 2 h (in vivo; Pancreas uptake): 0.13 ± 0.03 %ID/g
tissue uptake at 24 h (in vivo; Pancreas uptake): 0.09 ± 0.01 %ID/g
tissue uptake at 48 h (in vivo; Pancreas uptake): 0.05 ± 0.01 %ID/g
tissue uptake at 0.5 h (in vivo; Spleen uptake): 1.7 ± 0.62 %ID/g
tissue uptake at 24 h (in vivo; Spleen uptake): 0.58 ± 0.09 %ID/g
tissue uptake at 48 h (in vivo; Spleen uptake): 0.46 ± 0.1 %ID/g
tissue uptake at 0.5 h (in vivo; Stomach uptake): 2.17 ± 0.49 %ID/g
tissue uptake at 24 h (in vivo; Stomach uptake): 0.21 ± 0.01 %ID/g
tissue uptake at 48 h (in vivo; Stomach uptake): 0.14 ± 0.02 %ID/g
tissue uptake at 0.5 h (in vivo; Tumor uptake): 5.74 ± 1.6 %ID/g
tissue uptake at 24 h (in vivo; Tumor uptake): 1.29 ± 0.02 %ID/g
tissue uptake at 48 h (in vivo; Tumor uptake): 0.76 ± 0.17 %ID/g
tissue to tissue ratio at 0.5 h (in vivo; Tumor-to-blood ratio): 8.9 ± 3.09
tissue to tissue ratio at 2 h (in vivo; Tumor-to-blood ratio): 25.8 ± 10.5
tissue to tissue ratio at 24 h (in vivo; Tumor-to-blood ratio): 128 ± 30.5
tissue to tissue ratio at 48 h (in vivo; Tumor-to-blood ratio): 144 ± 36.3
tissue to tissue ratio at 0.5 h (in vivo; Tumor-to-muscle ratio): 20.6 ± 6.4
tissue to tissue ratio at 24 h (in vivo; Tumor-to-muscle ratio): 37.7 ± 9.81
tissue to tissue ratio at 48 h (in vivo; Tumor-to-muscle ratio): 41.1 ± 8.62

Source: paper PMC3336217, “^111In-Labeled Cystine-Knot Peptides Based on the Agouti-Related Protein for Targeting Tumor Angiogenesis” (Journal of Biomedicine and Biotechnology, 2012)
